{
  "source": "patent US20250066499A1",
  "about": "(SUNSHINE GUOJIAN PHARMACEUTICAL SHANGHAI, published 2025)",
  "key": {"[1]": {"molecular_target": "T1, CD73-ND-his (human, UniProt P21589 27-317)", "T1 construct": "Biotinylated and captured on streptavidin in the ELISA", "T1 sequence": "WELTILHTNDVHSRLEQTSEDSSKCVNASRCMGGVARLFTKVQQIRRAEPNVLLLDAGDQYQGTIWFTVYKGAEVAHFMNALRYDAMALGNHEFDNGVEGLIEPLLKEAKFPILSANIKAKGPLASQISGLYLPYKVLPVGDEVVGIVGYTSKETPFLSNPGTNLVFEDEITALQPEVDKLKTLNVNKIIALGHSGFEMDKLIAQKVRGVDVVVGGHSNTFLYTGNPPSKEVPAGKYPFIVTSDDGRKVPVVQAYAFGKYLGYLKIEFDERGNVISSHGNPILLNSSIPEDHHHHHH", "assay": "ELISA, biotinylated antigen on streptavidin plate", "protocol": "(§1) The ELISA plates were coated with SA protein diluted to 1.5 μg/mL in coating buffer (50 mM carbonate coating buffer, pH 9.6) and incubated overnight at 4° C. The supernatant was discarded, and the plates were washed three times with PBST. Then, 5% skimmed milk powder prepared with PBS was added for blocking and the plates were incubated for 2 h at 37° C. After washing the plates once with PBST, CD73-biotin protein (prepared by biotinylating CD73-His protein according to the EZ-Link NHS-Biotin Reagent instructions) was diluted to 0.5 μg/mL and added at 100 μL/well for incubation at room temperature for 1 h. The plates were washed three times with PBST, and the prepared murine-derived monoclonal antibodies against human CD73 were serially diluted with 1% BSA buffer prepared with PBST and added to the ELISA plates at 100 μl/well. The plates were incubated at 37° C. for 1 h. After washing the plates three times with PBST, HRP-labeled goat anti-mouse IgG secondary antibody was added and the plates were incubated for 30 min at 37° C. After washing the plates three times with PBST, the residual droplets were patted dry on absorbent paper as much as possible. Then, 100 μl of TMB color developing solution was added to each well, and the plates were incubated in the dark at room temperature for 5 min for color development. Subsequently, 50 μl of 2M H₂SO₄ stop solution was added to each well to terminate the substrate reaction. The OD values were read at 450 nm using a multimode microplate reader to analyze the binding ability of the tested antibodies to the target antigen human CD73-His.\n(§2) Referring to the experimental method in Example 3, the affinity of 48A11-HuV33 for various mutant proteins of CD73-ND was determined. The SA protein was diluted to 1 μg/mL for coating the ELISA plates, and the biotinylated CD73 protein (CD73-biotin) was used at a concentration of 0.1 μg/mL."}, "[2]": {"molecular_target": "T2, CD73-ND-V186A (human, UniProt P21589 27-317)", "T2 construct": "Alanine mutant of CD73-ND", "T2 sequence": "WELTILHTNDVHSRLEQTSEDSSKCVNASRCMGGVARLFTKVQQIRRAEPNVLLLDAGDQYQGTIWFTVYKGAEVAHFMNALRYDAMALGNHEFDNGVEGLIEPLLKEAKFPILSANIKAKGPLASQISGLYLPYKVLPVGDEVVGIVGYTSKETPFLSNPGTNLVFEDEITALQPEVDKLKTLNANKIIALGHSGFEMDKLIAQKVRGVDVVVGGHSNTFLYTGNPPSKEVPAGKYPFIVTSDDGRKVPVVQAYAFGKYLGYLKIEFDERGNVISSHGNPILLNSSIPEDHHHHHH", "assay": "ELISA, biotinylated antigen on streptavidin plate", "protocol": "as §1, §2"}, "[3]": {"molecular_target": "T3, CD73-ND-L184A (human, UniProt P21589 27-317)", "T3 construct": "Alanine mutant of CD73-ND", "T3 sequence": "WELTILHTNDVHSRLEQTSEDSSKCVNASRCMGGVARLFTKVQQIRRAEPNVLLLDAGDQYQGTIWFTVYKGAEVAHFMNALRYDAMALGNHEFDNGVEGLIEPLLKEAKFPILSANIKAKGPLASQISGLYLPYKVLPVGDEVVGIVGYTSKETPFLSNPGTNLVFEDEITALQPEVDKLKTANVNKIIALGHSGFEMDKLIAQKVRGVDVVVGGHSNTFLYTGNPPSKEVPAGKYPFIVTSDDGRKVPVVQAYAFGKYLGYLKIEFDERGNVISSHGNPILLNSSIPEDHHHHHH", "assay": "ELISA; decline multiple of Top against CD73-ND", "protocol": "as §1, §2"}, "[4]": {"molecular_target": "T1, CD73-ND-his", "assay": "ELISA; decline multiple of Top against CD73-ND", "protocol": "as §1, §2"}, "[5]": {"molecular_target": "T4, CD73-ND-D142A (human, UniProt P21589 27-317)", "T4 construct": "Alanine mutant of CD73-ND", "T4 sequence": "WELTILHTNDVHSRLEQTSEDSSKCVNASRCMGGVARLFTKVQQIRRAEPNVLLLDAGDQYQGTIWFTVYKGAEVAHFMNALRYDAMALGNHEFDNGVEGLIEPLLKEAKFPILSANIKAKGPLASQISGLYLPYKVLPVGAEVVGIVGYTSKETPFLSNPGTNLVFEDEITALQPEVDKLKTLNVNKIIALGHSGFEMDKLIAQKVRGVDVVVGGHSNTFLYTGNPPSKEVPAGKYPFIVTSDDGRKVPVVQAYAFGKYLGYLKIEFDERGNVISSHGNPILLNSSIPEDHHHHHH", "assay": "ELISA; decline multiple of Top against CD73-ND", "protocol": "as §1, §2"}, "[6]": {"molecular_target": "T5, CD73-ND-V140A (human, UniProt P21589 27-317)", "T5 construct": "Alanine mutant of CD73-ND", "T5 sequence": "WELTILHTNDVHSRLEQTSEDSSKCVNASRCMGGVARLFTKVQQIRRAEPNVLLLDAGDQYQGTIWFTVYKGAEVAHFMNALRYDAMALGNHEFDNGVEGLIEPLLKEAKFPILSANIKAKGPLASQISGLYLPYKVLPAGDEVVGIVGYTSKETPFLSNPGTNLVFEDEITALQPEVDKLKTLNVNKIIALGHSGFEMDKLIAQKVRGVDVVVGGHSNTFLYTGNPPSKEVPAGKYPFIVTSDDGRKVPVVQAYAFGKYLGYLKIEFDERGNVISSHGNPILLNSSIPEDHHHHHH", "assay": "ELISA; decline multiple of Top against CD73-ND", "protocol": "as §1, §2"}, "[7]": {"molecular_target": "T6, CD73-ND-P139A (human, UniProt P21589 27-317)", "T6 construct": "Alanine mutant of CD73-ND", "T6 sequence": "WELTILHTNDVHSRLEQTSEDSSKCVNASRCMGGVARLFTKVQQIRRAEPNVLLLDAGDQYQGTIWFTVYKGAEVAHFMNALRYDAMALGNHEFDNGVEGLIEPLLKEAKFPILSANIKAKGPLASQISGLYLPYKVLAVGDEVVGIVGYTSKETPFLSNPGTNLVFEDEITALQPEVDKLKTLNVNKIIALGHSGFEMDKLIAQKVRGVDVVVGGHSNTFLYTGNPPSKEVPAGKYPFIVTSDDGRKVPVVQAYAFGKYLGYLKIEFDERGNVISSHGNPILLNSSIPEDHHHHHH", "assay": "ELISA; decline multiple of Top against CD73-ND", "protocol": "as §1, §2"}},
  "data": [
    {"binder": "48A11-HuV33 (antibody, human IgG4, V domains shown, Humanized) VH: QVQLVQSGAEVKKPGASVKVSCKASGYTFTSYWMHWVRQAPGQGLEWIGEINPSIGRTNYNEKFKSRVTLTRDTSTSTAYMELSSLRSEDTAVYYCARRVYGTMDYWGQGTLVTVSS VL: DIQMTQSPSSLSASVGDRVTITCKASQDINSYLSWFQQKPGKSPKLLIYRANIWVDGVPSRFSGSGSGQDYTFTISSLQPEDIATYYCLQYDELYTFGQGTKVEIK", "values": [
      {"measurement": "EC50", "setting": "[1]", "result": 0.091, "unit": "nM"},
      {"measurement": "EC50", "setting": "[2]", "result": 0.16, "unit": "nM"},
      {"measurement": "Ratio(Top)", "setting": "[3]", "result": 1.2, "unit": "fold"},
      {"measurement": "Ratio(Top)", "setting": "[4]", "result": 1, "unit": "fold"},
      {"measurement": "Ratio(Top)", "setting": "[5]", "result": 1.1, "unit": "fold"},
      {"measurement": "Ratio(Top)", "setting": "[6]", "result": 1, "unit": "fold"},
      {"measurement": "Ratio(Top)", "setting": "[7]", "result": 2.3, "unit": "fold"}
    ]}
  ]
}
